“And” between values parts separate entries of the source, which are not always exact repeats. Equal values may be shown once.
Key:
[1] = target: Drp6-4A (Drp6 GKFR-AAAA), N-terminal His6 tag (Tetrahymena thermophila) (UniProt Q38KF5); assay: SEC
[2] = target: Drp6-4A (Drp6 GKFR-AAAA), N-terminal His6 tag (Tetrahymena thermophila) (UniProt Q38KF5)
SEC = target: the molecule itself; assay: SEC

Molecule | percent eluted in the tetramer peak (peak2) [1] | stoichiometry N [1] | GTP hydrolysis rate (colorimetric Pi release, 1 μM protein, 1 mM GTP) [2] | stoichiometry N (SEC)
Drp6-4A (Drp6 GKFR-AAAA), N-terminal His6 tag (from UniProt Q38KF5 1-710) (natural protein) | 19% | 4 | 0.83 μM /μM/min | –
Dynamin-related protein 6 (Drp6), wild type, N-terminal His6 tag (natural protein, Tetrahymena thermophila, UniProt Q38KF5 1-710, looked up) MTNTIVPANNFQNIKEVIKVVNKLRDFGIESDKIQLPKIVVIGVQSSGKSSLLEQIVQLDFLPRGTGVVTRCPLEIRLIEVTNQDSDFKPYAYFFEERQKIFHDFELVKKEIQKITNDFAGPGKKIVDKVITLTIYQAQCPTLTLIDLPGMTLNSVGDQKDIERVTQDMTKKYIIEKTTIILCVIPINQDLENSLALNLARSVDENGERTIGVLTMIDIMNPGTNCENVLKNRQIPLLHRYYGMKPRSQKDINENVSVQEAIQREQLYFTSHQIYSMYPEYTGTNALTNKLSTLLDSHIRTFLPSIHKKIKMTLSERIKERQQLGNEFPTEVTQQLYELTNIINTSLNLFKQAMTNYDASEIQNIGKIKVDERVGKSYADFLFDKYLLICKKISEEQVFKVKMKDLIKELGKFRVQVNGFLPFEVFESQIKQKINLYETEAIVILEQLKEHVRKVLNHCIDLFPFPNNKIKKIMQDILQNFVQTEYNFTSSHIKTAFYCYKDCICSKMIDIHETESKLKQNHVYLQNDNQQKKVLYEYISKNKSFMEWTVQEIMIKAENLCNVPITMSDLQNTYTKAEEKVQNTDEVLRYSIIYYKYMDNFRKQISDQIPQCIQSLFINSLCKNLMVKVFQAIQSKEYKEIIEKNLKEDEIIATKRAKVIQSIQKLAKANDRLERLIDQGQNCNHMLSTTYGDEENYIHESLEDSDGIDD | – | – | – | ≥ 6 protomers and 4

From article doi:10.1101/2025.02.19.639038 (bioRxiv, 2025)
